Assay results as given in IntAct's records for PubMed 15117939.

B1: Mannan-binding lectin serine protease 2 (Homo sapiens), O00187-2 (parent)
chain: MRLLTLLGLLCGSVATPLGPKWPEPVFGRLASPGFPGEYANDQERRWTLTAPPGYRLRLYFTHFDLELSHLCEYDFVKLSSGAKVLATLCGQESTDTERAPGKDTFYSLGSSLDITFRSDYSNEKPFTGFEAFYAAEDIDECQVAPGEAPTCDHHCHNHLGGFYCSCRAGYVLHRNKRTCSEQSL

Assays:
mbl2_human MBL2, P11226 = variants of: B1; details: with mbl2_human MBL2, P11226
fcn2_human FCN2, Q15485 = variants of: B1; details: with fcn2_human FCN2, Q15485
Chain of fcn2_human FCN2, Q15485 (Q15485 whole entry): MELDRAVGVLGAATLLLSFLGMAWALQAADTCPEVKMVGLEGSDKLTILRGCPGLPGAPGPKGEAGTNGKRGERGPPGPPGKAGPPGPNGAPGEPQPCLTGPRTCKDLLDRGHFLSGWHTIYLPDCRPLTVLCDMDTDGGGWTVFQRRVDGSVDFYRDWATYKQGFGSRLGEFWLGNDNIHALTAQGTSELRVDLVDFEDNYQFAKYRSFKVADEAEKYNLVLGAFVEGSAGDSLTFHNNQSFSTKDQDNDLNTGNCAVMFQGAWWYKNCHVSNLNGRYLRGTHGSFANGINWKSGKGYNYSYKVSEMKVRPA

Chain of mbl2_human MBL2, P11226 (P11226 whole entry): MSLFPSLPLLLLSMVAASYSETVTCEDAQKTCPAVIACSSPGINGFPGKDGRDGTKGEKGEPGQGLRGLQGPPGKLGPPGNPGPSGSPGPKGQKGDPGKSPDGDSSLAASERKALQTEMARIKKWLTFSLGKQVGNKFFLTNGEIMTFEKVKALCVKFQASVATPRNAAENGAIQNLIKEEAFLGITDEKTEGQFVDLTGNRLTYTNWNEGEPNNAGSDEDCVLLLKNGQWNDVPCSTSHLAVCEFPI

effect of a mutation on the interaction (mbl2_human MBL2, P11226) | effect of a mutation on the interaction (fcn2_human FCN2, Q15485) | Variant
with no effect | with no effect | E73A
with no effect | with no effect | R56A
decreasing interaction strength | with no effect | E124A
disrupting interaction strength | disrupting interaction strength | Y74A
decreasing interaction strength | decreasing interaction strength | E148A
with no effect | with no effect | H70A
disrupting interaction strength | disrupting interaction strength | D120G
with no effect | with no effect | D96N
decreasing interaction strength | decreasing interaction strength | E98A
disrupting interaction strength | disrupting interaction strength | Y121A
with no effect | with no effect | E93Q
decreasing interaction strength | decreasing interaction strength | D75A
